# Results from patent US20060263802A1 (CRUCELL HOLLAND B V, published 2006).
# B1: human monoclonal antibody CRJB (antibody, V domains shown)
# VH: QITLKETGPTLVKPTQTLTLTCTFSGFSLSTSGVGVGWIRQPPGKALEWVTLIYWDDDKRYSPSLENRVTIRKDTSKNQVALTMTNMDPLDTGTYYCAHRQHISSFPWFDSWGQGTLVTVSS
# VL: SYVLTQPPSVSVAPGKTARINCGGNNIEYRSVHWYQQKSGQAPVAVIYDNSDRPSGIPERFSGSKSGNTATLTISRVEAGDEADYYCQVWDISSDVVFGGGTKLTVLG
# Experiments:
# Experiment in all cases: PEPSCAN ELISA, looped peptide, 10 ug/ml
# [1] = biological target: looped/cyclic peptide … (rabies virus strain ERA)
# [2] = biological target: looped/cyclic peptide … (rabies virus strain ERA); remark: listed apart in the source
# [3] = biological target: looped/cyclic peptide … (rabies virus strain ERA); remark: listed apart in the source
# [4] = biological target: looped/cyclic peptide … (rabies virus strain ERA); remark: listed apart in the source
# [5] = biological target: looped/cyclic peptide ADPSTVFKDGDEAED (rabies virus strain ERA)
# [6] = biological target: looped/cyclic peptide … (rabies virus strain ERA); remark: listed apart in the source
# [7] = biological target: looped/cyclic peptide … (rabies virus strain ERA); remark: listed apart in the source
# [8] = biological target: looped/cyclic peptide … (rabies virus strain ERA); remark: listed apart in the source
# [9] = biological target: looped/cyclic peptide … (rabies virus strain ERA); remark: listed apart in the source
# [10] = biological target: looped/cyclic peptide … (rabies virus strain ERA); remark: listed apart in the source
# [11] = biological target: looped/cyclic peptide … (rabies virus strain ERA); remark: listed apart in the source
# [12] = biological target: looped/cyclic peptide … (rabies virus strain ERA); remark: listed apart in the source
# [13] = biological target: looped/cyclic peptide … (rabies virus strain ERA); remark: listed apart in the source
# [14] = biological target: looped/cyclic peptide … (rabies virus strain ERA); remark: listed apart in the source
# [15] = biological target: looped/cyclic peptide … (rabies virus strain ERA); remark: listed apart in the source
# [16] = biological target: looped/cyclic peptide … (rabies virus strain ERA); remark: listed apart in the source
# [17] = biological target: looped/cyclic peptide … (rabies virus strain ERA); remark: listed apart in the source
# [18] = biological target: looped/cyclic peptide … (rabies virus strain ERA); remark: listed apart in the source
# [19] = biological target: looped/cyclic peptide … (rabies virus strain ERA); remark: listed apart in the source
# [20] = biological target: looped/cyclic peptide … (rabies virus strain ERA); remark: listed apart in the source
# [21] = biological target: looped/cyclic peptide … (rabies virus strain ERA); remark: listed apart in the source
# [22] = biological target: looped/cyclic peptide … (rabies virus strain ERA); remark: listed apart in the source
# [23] = biological target: looped/cyclic peptide … (rabies virus strain ERA); remark: listed apart in the source
# [24] = biological target: looped/cyclic peptide … (rabies virus strain ERA); remark: listed apart in the source
# [25] = biological target: looped/cyclic peptide … (rabies virus strain ERA); remark: listed apart in the source
# [26] = biological target: looped/cyclic peptide … (rabies virus strain ERA); remark: listed apart in the source
# [27] = biological target: looped/cyclic peptide … (rabies virus strain ERA); remark: listed apart in the source
# [28] = biological target: looped/cyclic peptide … (rabies virus strain ERA); remark: listed apart in the source
# [29] = biological target: looped/cyclic peptide … (rabies virus strain ERA); remark: listed apart in the source
# [30] = biological target: looped/cyclic peptide … (rabies virus strain ERA); remark: listed apart in the source
# [31] = biological target: looped/cyclic peptide … (rabies virus strain ERA); remark: listed apart in the source
# [32] = biological target: looped/cyclic peptide … (rabies virus strain ERA); remark: listed apart in the source
# [33] = biological target: looped/cyclic peptide … (rabies virus strain ERA); remark: listed apart in the source
# [34] = biological target: looped/cyclic peptide … (rabies virus strain ERA); remark: listed apart in the source
# [35] = biological target: looped/cyclic peptide … (rabies virus strain ERA); remark: listed apart in the source
# [36] = biological target: looped/cyclic peptide … (rabies virus strain ERA); remark: listed apart in the source
# [37] = biological target: looped/cyclic peptide … (rabies virus strain ERA); remark: listed apart in the source
# [38] = biological target: looped/cyclic peptide … (rabies virus strain ERA); remark: listed apart in the source
# [39] = biological target: looped/cyclic peptide … (rabies virus strain ERA); remark: listed apart in the source
# [40] = biological target: looped/cyclic peptide … (rabies virus strain ERA); remark: listed apart in the source
# [41] = biological target: looped/cyclic peptide … (rabies virus strain ERA); remark: listed apart in the source
# [42] = biological target: looped/cyclic peptide … (rabies virus strain ERA); remark: listed apart in the source
# [43] = biological target: looped/cyclic peptide … (rabies virus strain ERA); remark: listed apart in the source
# [44] = biological target: looped/cyclic peptide … (rabies virus strain ERA); remark: listed apart in the source
# [45] = biological target: looped/cyclic peptide … (rabies virus strain ERA); remark: listed apart in the source
# [46] = biological target: looped/cyclic peptide … (rabies virus strain ERA); remark: listed apart in the source
# [47] = biological target: looped/cyclic peptide … (rabies virus strain ERA); remark: listed apart in the source
# [48] = biological target: looped/cyclic peptide … (rabies virus strain ERA); remark: listed apart in the source
# [49] = biological target: looped/cyclic peptide … (rabies virus strain ERA); remark: listed apart in the source
# [50] = biological target: looped/cyclic peptide … (rabies virus strain ERA); remark: listed apart in the source
# [51] = biological target: looped/cyclic peptide … (rabies virus strain ERA); remark: listed apart in the source
# [52] = biological target: looped/cyclic peptide … (rabies virus strain ERA); remark: listed apart in the source
# [53] = biological target: looped/cyclic peptide … (rabies virus strain ERA); remark: listed apart in the source
# [54] = biological target: looped/cyclic peptide … (rabies virus strain ERA); remark: listed apart in the source
# [55] = biological target: looped/cyclic peptide … (rabies virus strain ERA); remark: listed apart in the source
# [56] = biological target: looped/cyclic peptide … (rabies virus strain ERA); remark: listed apart in the source
# [57] = biological target: looped/cyclic peptide … (rabies virus strain ERA); remark: listed apart in the source
# [58] = biological target: looped/cyclic peptide … (rabies virus strain ERA); remark: listed apart in the source
# [59] = biological target: looped/cyclic peptide … (rabies virus strain ERA); remark: listed apart in the source
# [60] = biological target: looped/cyclic peptide … (rabies virus strain ERA); remark: listed apart in the source
# [61] = biological target: looped/cyclic peptide … (rabies virus strain ERA); remark: listed apart in the source
binder,measurement,setting,value
B1,OD,[1],58 OD
same,OD,[2],93 OD
same,OD,[3],97 OD
same,OD,[4],90 OD
same,OD,[5],72 OD
same,OD,[6],110 OD
same,OD,[7],101 OD
same,OD,[8],93 OD
same,OD,[9],90 OD
same,OD,[10],80 OD
same,OD,[11],42 OD
same,OD,[12],71 OD
same,OD,[13],102 OD
same,OD,[14],87 OD
same,OD,[15],104 OD
same,OD,[16],93 OD
same,OD,[17],90 OD
same,OD,[18],89 OD
same,OD,[19],92 OD
same,OD,[20],101 OD
same,OD,[21],104 OD
same,OD,[22],79 OD
same,OD,[23],107 OD
same,OD,[24],94 OD
same,OD,[25],93 OD
same,OD,[26],118 OD
same,OD,[27],104 OD
same,OD,[28],113 OD
same,OD,[29],106 OD
same,OD,[30],100 OD
same,OD,[31],83 OD
same,OD,[32],78 OD
same,OD,[33],100 OD
same,OD,[34],92 OD
same,OD,[35],78 OD
same,OD,[36],79 OD
same,OD,[37],91 OD
same,OD,[38],86 OD
same,OD,[39],129 OD
same,OD,[40],97 OD
same,OD,[41],97 OD
same,OD,[42],87 OD
same,OD,[43],72 OD
same,OD,[44],86 OD
same,OD,[45],76 OD
same,OD,[46],82 OD
same,OD,[47],100 OD
same,OD,[48],106 OD
same,OD,[49],101 OD
same,OD,[50],94 OD
same,OD,[51],104 OD
same,OD,[52],147 OD
same,OD,[53],98 OD
same,OD,[54],93 OD
same,OD,[55],113 OD
same,OD,[56],98 OD
same,OD,[57],111 OD
same,OD,[58],123 OD
same,OD,[59],97 OD
same,OD,[60],91 OD
same,OD,[61],85 OD
